In article PMC6547421, “A unique exonuclease ExoG cleaves between RNA and DNA in mitochondrial DNA replication” (Nucleic Acids Research, 2019):

T1: ExoG-H140A (catalytically dead) (Homo sapiens, UniProt Q9Y2C4 42-368, H140A)
T1 sequence: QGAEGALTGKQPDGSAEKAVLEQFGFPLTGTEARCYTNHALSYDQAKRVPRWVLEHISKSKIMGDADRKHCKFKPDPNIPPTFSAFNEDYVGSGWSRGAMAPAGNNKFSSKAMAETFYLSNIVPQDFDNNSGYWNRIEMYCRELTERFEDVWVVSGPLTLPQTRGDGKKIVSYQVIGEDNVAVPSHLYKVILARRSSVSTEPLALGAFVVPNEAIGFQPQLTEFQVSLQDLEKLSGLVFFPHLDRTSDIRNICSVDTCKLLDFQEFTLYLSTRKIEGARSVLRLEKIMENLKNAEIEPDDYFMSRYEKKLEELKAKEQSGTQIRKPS

T2: ExoG-H140A/F168A (Homo sapiens, UniProt Q9Y2C4 42-368, H140A;F168A)
T2 sequence: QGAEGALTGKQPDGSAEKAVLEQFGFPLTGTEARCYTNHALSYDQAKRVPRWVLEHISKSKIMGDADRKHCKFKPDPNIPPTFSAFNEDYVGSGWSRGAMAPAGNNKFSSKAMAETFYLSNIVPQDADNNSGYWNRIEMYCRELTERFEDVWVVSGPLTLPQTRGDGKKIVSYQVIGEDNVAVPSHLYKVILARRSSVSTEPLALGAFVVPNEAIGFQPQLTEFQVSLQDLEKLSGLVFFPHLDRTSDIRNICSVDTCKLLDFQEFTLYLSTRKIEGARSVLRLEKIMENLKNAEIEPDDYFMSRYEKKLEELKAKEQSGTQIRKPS

T3: ExoG-H140A/N176A (Homo sapiens, UniProt Q9Y2C4 42-368, H140A;N176A)
T3 sequence: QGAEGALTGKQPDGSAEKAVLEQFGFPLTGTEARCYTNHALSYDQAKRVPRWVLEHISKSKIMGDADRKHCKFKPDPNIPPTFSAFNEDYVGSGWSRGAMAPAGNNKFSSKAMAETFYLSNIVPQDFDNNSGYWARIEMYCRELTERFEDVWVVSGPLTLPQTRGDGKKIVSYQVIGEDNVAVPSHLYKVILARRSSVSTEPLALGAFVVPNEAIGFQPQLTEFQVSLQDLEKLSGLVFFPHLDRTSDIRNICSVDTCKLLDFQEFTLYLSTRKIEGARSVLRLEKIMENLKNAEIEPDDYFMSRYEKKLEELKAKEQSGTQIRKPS


Experiments:
[1] = biological target: T1, ExoG-H140A (catalytically dead); assay: crystal structure (3.0 A); Mg2+; one duplex per protomer; FP: 10 nM FAM substrate, 10 mM HEPES pH 7.4, 150 mM NaCl, 2.5 mM MgCl2; temperature not stated; details: protein: recombinant; tags: N-terminal His; chain copies: 2; 12-bp duplex
[2] = biological target: T1, ExoG-H140A (catalytically dead); assay: crystal structure (2.8 A); Mg2+; one duplex per protomer; FP: 10 nM FAM substrate, 10 mM HEPES pH 7.4, 150 mM NaCl, 2.5 mM MgCl2; temperature not stated; details: protein: recombinant; tags: N-terminal His; chain copies: 2; 12-bp duplex
ExoG-H140A/F168A = biological target: T2, ExoG-H140A/F168A; assay: fluorescence polarization; 2.5 mM Mg2+; FP: 10 nM FAM substrate, 10 mM HEPES pH 7.4, 150 mM NaCl, 2.5 mM MgCl2; temperature not stated; details: protein: recombinant; tags: N-terminal His; chain copies: 2; label: 3'-FAM strand 1; 5'-biotin strand 2; 20-bp duplex, 26-nt 3' overhang on strand 2
[3] = biological target: T1, ExoG-H140A (catalytically dead); assay: as above; details: protein: recombinant; tags: N-terminal His; chain copies: 2; label: 3'-FAM strand 1; 5'-biotin strand 2; 20-bp duplex, 26-nt 3' overhang on strand 2
ExoG-H140A/N176A = biological target: T3, ExoG-H140A/N176A; assay: as above; details: protein: recombinant; tags: N-terminal His; chain copies: 2; label: 3'-FAM strand 1; 5'-biotin strand 2; 20-bp duplex, 26-nt 3' overhang on strand 2
[4] = biological target: the molecule itself; assay: crystal structure; ExoG-H140A co-crystallised with a 12-bp dsDNA, an RNA/DNA hybrid duplex or an R2-DNA/DNA chimeric duplex (protein to substrate 1:1.2, 2 mM MgCl2), hanging drop vapor diffusion at 4°C; ExoG dimer in the asymmetric unit, each protomer bound to one duplex
[5] = biological target: T1, ExoG-H140A (catalytically dead); assay: crystal structure (2.3 A); Mg2+; one duplex per protomer; FP: 10 nM FAM substrate, 10 mM HEPES pH 7.4, 150 mM NaCl, 2.5 mM MgCl2; temperature not stated; details: protein: recombinant; tags: N-terminal His; chain copies: 2; blunt, self-complementary, 2 copies of strand

Binder	Kd (ExoG-H140A/F168A) [nM]	Kd [3] [nM]	Kd (ExoG-H140A/N176A) [nM]	also measured
12-nt R2-DNA/DNA chimeric duplex (crystal) (mixed, two 5'-end ribonucleotides and 5'-phosphate on scissile strand; complement DNA 5'-OH) DNA 1: CGGGATGTCACG DNA 2: CGTGACATCCCG	–	–	–	binding result [1]: binds
12-bp RNA/DNA hybrid (crystal) (DNA:RNA, 5'-phosphate on RNA strand; DNA strand 5'-OH) RNA: CGGGAUGUCACG DNA: CGTGACATCCCG	–	–	–	binding result [2]: binds
R2-DNA/DNA (mixed, strand 1 nt 1-2 (GC) are ribonucleotides, rest DNA; 5'-phosphate on strand 1) DNA 1: GCTTAACGCTGACTCGCTAC DNA 2: GTAGCGAGTCAGCGTTAAGCACTATCATAGCCATCTGCCATTACTG	3150 ± 259	1030 ± 86	930 ± 63	–
DNA/DNA (dsDNA, 5'-phosphate on strand 1) DNA 1: GCTTAACGCTGACTCGCTAC DNA 2: GTAGCGAGTCAGCGTTAAGCACTATCATAGCCATCTGCCATTACTG	3930 ± 188	1320 ± 79	950 ± 63	–
RNA/DNA (DNA:RNA, strand 1 RNA with 5'-phosphate; strand 2 DNA) RNA: GCUUAACGCUGACUCGCUAC DNA: GTAGCGAGTCAGCGTTAAGCACTATCATAGCCATCTGCCATTACTG	250 ± 14	190 ± 10	120 ± 8	–
human ExoG-H140A (catalytically dead mutant of Exonuclease G, without the N-terminal MLS) (enzyme, UniProt Q9Y2C4 42-368, looked up, source: E. coli Rosetta 2 (DE3) pLysS, purified (HisTrap HP, Superdex 200 gel filtration)) QGAEGALTGKQPDGSAEKAVLEQFGFPLTGTEARCYTNHALSYDQAKRVPRWVLEHISKSKIMGDADRKHCKFKPDPNIPPTFSAFNEDYVGSGWSRGAMAPAGNNKFSSKAMAETFYLSNIVPQDFDNNSGYWNRIEMYCRELTERFEDVWVVSGPLTLPQTRGDGKKIVSYQVIGEDNVAVPSHLYKVILARRSSVSTEPLALGAFVVPNEAIGFQPQLTEFQVSLQDLEKLSGLVFFPHLDRTSDIRNICSVDTCKLLDFQEFTLYLSTRKIEGARSVLRLEKIMENLKNAEIEPDDYFMSRYEKKLEELKAKEQSGTQIRKPS	–	–	–	binding result [4]: binds
12-bp palindromic DNA (crystal) (dsDNA, 5'-OH and 3'-OH) DNA 1: CGGGATATCCCG DNA 2: CGGGATATCCCG	–	–	–	binding result [5]: binds
